Tests used:
[1] = biological target: human cathepsin G (human) (UniProt P08311)
[2] = biological target: human cathepsin L (human)

Chain of human cathepsin G (human) (P08311 21-244): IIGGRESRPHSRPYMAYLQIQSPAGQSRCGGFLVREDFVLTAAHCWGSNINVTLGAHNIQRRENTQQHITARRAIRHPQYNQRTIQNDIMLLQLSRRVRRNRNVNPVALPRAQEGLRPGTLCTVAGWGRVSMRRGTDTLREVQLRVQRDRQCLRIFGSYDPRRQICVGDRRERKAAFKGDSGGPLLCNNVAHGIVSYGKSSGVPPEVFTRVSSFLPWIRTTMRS

## recombinant His-tagged ANISERP protein (baculovirus system) (from UniProt F4MST7 1-397) (natural protein)
Human thrombin (human)
  IC50 of inhibition of thrombin (74 nM) proteolytic activity on Boc-Val-Arg-AMC after 10 min at 37 °C with ANISERP: 152 nM
[1]
  IC50 of inhibition of cathepsin G (0.33 nM) proteolytic activity on N-succinyl-Ala-Ala-Phe-AMC: 542 nM
Human trypsin (human)
  IC50 of inhibition of trypsin (54 nM) proteolytic activity on Boc-Gln-Ala-Arg-AMC: 173 nM
[2]
  IC50 of inhibition of cathepsin L (0.83 nM) proteolytic activity on Z-Phe-Arg-AMC: 217 nM
